Values of other authors, collected in publication PMC5874815.

Target: EGFR (Homo sapiens) (UniProt P00533)

- Kd: 2 nM
Substance: EGF (from UniProt P01133)
